The text below walks through data of patent publication US20250361282A1 (Bayer, published 2025).

What all share (experiment): cell-based or functional assay
One assay concerns the target T1, rat NPR-B (rat, UniProt P16067 17-1047).
T1 sequence (looked up): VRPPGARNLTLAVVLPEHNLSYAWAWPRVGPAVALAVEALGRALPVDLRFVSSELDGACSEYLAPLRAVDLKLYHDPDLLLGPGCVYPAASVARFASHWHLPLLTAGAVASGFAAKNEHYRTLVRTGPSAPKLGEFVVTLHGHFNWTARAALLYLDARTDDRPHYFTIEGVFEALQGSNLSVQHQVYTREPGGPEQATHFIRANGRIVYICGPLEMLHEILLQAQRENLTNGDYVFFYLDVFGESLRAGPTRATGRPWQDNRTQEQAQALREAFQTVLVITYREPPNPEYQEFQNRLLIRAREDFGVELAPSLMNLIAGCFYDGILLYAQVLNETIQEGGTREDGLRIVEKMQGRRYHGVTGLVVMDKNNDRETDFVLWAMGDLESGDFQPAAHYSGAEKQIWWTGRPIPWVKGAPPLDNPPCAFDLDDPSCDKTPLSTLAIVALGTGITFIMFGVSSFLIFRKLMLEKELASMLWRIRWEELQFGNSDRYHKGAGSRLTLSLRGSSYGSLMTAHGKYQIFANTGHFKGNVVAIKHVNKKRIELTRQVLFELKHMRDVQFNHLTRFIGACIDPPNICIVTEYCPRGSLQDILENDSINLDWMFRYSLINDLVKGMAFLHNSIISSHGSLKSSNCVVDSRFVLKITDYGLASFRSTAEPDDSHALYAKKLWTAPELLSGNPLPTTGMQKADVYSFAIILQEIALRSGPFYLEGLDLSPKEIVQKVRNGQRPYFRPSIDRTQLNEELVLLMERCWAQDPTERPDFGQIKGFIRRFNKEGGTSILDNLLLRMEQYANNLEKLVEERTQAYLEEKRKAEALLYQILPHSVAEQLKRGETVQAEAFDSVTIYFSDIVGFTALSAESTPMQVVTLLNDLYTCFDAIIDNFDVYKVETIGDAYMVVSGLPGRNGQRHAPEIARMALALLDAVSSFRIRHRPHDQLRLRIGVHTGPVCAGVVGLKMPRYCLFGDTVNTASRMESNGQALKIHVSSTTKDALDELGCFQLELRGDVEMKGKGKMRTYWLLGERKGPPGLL

In another assay the target is T2, human NPRA (hNPRA) (human, UniProt P16066 33-1061).
T2 sequence (looked up): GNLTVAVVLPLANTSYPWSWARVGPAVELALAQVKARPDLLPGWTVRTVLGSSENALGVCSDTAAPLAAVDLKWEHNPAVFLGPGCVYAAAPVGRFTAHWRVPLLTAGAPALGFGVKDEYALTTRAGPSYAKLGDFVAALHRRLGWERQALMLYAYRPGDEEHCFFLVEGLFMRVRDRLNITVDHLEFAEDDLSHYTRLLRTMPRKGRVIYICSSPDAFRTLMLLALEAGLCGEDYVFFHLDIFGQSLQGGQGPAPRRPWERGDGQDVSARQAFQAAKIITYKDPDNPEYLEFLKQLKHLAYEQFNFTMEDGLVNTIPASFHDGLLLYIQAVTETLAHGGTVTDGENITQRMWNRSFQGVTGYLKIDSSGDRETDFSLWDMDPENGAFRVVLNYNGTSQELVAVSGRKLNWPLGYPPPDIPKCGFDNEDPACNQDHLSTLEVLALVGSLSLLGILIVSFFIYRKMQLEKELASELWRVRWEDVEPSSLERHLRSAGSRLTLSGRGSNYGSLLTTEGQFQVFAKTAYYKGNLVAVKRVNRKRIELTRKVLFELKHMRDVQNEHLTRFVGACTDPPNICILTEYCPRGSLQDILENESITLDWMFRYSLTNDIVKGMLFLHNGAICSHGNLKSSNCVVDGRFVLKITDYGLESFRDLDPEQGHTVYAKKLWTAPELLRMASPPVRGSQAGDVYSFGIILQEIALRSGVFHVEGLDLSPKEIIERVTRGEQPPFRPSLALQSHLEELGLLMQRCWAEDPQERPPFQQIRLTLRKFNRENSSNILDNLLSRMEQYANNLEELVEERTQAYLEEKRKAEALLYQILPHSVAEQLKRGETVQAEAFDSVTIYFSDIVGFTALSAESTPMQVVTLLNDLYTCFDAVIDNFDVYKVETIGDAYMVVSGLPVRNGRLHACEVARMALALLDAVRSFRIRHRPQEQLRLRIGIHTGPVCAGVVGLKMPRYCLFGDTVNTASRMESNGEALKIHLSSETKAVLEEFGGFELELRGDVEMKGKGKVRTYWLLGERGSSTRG

The target in the next assay is T3, rat NPR-A (rat, UniProt P18910 29-1057).
T3 sequence (looked up): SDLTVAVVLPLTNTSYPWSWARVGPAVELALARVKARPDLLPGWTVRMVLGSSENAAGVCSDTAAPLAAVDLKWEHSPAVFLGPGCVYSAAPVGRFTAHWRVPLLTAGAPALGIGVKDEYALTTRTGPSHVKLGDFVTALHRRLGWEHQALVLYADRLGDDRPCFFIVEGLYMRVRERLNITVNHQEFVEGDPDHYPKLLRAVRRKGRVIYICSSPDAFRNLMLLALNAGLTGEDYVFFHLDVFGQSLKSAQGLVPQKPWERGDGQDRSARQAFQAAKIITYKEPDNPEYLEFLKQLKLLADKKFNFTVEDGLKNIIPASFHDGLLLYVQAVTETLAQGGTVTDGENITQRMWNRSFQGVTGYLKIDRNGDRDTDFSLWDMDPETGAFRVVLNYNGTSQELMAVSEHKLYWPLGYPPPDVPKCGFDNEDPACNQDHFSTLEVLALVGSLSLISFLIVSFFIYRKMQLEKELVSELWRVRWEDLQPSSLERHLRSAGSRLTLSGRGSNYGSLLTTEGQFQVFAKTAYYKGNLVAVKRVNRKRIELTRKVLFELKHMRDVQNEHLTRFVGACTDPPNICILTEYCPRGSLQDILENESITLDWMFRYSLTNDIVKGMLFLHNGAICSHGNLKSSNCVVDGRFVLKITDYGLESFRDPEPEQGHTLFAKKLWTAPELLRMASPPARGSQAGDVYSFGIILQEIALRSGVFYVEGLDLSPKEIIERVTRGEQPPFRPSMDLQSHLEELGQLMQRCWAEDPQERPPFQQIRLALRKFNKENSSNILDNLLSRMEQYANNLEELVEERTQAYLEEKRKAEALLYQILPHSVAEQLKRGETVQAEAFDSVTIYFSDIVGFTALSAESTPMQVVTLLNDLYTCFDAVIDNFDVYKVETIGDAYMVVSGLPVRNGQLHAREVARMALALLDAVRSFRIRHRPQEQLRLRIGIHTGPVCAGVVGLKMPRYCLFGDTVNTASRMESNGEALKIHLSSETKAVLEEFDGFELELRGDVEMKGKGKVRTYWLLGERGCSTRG

Where a chain is given by its changes, count along the chain named.

B1: TPP-9465 (antibody)
heavy: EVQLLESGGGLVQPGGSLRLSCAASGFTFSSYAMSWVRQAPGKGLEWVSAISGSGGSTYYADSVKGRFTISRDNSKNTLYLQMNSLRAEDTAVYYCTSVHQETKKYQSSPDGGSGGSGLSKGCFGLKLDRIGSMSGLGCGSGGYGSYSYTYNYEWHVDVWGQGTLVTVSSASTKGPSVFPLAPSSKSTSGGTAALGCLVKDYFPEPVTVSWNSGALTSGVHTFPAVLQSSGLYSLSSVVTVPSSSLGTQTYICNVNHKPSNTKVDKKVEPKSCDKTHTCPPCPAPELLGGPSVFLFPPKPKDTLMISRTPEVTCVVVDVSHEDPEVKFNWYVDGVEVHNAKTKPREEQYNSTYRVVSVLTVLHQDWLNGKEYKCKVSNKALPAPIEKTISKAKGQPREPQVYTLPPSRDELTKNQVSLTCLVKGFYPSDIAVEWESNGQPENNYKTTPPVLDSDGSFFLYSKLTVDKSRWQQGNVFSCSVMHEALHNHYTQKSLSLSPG
light: QSVLTQPPSVSGAPGQRVTISCTGSSSNIGAGYDVHWYQQLPGTAPKLLIYGNSNRPSGVPDRFSGSKSGTSASLAITGLQAEDEADYYCQSYDSSLSGVVFGGGTKLTVLGQPKAAPSVTLFPPSSEELQANKATLVCLISDFYPGAVTVAWKADSSPVKAGVETTTPSKQSNNKYAASSYLSLTPEQWKSHRSYSCQVTHEGSTVEKTVAPTECS
Take B1: the “EC50, luminescence signal of rat NPR-B reporter cells” value (shortened to “EC50, luminescence signal”) with rat NPR-B stood at 5.2 nM.

B2: TPP-5661 (antibody)
heavy: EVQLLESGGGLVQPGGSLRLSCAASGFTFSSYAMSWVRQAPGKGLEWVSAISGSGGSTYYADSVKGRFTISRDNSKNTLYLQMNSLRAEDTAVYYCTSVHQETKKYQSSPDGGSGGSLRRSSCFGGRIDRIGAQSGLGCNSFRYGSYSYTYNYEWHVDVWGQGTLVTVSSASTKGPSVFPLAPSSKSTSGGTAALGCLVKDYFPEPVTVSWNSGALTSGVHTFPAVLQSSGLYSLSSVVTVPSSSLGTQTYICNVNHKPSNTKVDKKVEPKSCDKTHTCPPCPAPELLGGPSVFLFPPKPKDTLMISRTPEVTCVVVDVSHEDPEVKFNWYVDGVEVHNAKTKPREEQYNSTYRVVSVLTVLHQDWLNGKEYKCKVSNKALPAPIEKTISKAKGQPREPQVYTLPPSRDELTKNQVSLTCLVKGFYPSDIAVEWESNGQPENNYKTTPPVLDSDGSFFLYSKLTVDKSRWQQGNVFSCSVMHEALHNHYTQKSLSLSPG
light: B1 light
B2: in the assay with human NPRA (hNPRA), the “logEC50, cGMP quantification assay (HTRF), stable hNPRA-CHO k1 cells, isolated compound sample” value is -8.8; the “logEC50, cGMP quantification assay (HTRF), stable hNPRA-CHO k1 cells, purified compound sample, average of experiments” value was -9.2; the “logEC50, cGMP quantification assay (HTRF), transient hNPRA-HEK293 cells, purified compound sample, average of three experiments” value was -9. Moreover, the “EC50, fluorescence signal of rat NPR-A / CNGA2 (cGMP biosensor) / GCaMP6 CHO reporter cells” value with rat NPR-A is 17 nM.

B3: TPP-12897 (antibody)
heavy: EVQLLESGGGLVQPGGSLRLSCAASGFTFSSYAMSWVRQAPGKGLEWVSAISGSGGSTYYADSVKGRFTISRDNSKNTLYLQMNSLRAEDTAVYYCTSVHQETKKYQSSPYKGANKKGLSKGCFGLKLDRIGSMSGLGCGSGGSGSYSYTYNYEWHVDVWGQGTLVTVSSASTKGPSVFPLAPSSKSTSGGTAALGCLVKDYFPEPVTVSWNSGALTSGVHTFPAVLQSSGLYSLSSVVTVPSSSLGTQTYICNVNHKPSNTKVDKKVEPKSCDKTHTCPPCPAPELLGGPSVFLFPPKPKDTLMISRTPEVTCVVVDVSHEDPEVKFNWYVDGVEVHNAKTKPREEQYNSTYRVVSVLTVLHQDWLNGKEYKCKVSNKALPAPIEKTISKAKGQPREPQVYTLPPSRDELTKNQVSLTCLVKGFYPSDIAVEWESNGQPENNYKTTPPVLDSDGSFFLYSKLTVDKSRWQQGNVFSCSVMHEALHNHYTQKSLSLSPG
light: B1 light with S98D
On to B3, for which the “EC50, luminescence signal” value in the assay with rat NPR-B is 10 nM.

B4: TPP-12377 (antibody)
heavy: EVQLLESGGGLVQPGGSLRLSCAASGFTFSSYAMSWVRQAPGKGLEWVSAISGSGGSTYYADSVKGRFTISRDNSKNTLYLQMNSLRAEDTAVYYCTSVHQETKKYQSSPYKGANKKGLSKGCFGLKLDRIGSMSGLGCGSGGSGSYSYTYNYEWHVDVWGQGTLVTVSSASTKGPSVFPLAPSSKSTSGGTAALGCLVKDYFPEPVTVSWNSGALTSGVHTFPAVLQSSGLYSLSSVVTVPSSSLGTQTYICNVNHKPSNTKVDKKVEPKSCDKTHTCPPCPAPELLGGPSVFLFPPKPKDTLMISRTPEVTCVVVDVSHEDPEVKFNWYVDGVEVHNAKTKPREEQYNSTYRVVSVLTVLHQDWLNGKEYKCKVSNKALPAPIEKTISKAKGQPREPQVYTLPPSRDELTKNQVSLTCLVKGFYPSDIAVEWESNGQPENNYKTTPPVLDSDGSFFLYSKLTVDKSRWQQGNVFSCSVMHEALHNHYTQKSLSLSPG
light: B1 light
For B4, the “EC50, luminescence signal” value in the assay with rat NPR-B stood at 4.1 nM.
